From US20240327869, “SYNTHETIC GENETIC ELEMENTS FOR BIOMANUFACTURE” (JANSSEN BIOTECH, INC., published 2024)

Assays:
[1] = biological target: T1, SR21 serine recombinase (Serine Recombinase 21) (Bacillus safensis strain CCMA-560); test: cell_activity; attB partner of attP (SEQ 7) in inversion reporter P41, HEK293, fold increase in fLUC over reporter alone; details: tags: untagged; expressed from CMV promoter plasmid P175 or Ad5-CMV-SR21
T1 chain: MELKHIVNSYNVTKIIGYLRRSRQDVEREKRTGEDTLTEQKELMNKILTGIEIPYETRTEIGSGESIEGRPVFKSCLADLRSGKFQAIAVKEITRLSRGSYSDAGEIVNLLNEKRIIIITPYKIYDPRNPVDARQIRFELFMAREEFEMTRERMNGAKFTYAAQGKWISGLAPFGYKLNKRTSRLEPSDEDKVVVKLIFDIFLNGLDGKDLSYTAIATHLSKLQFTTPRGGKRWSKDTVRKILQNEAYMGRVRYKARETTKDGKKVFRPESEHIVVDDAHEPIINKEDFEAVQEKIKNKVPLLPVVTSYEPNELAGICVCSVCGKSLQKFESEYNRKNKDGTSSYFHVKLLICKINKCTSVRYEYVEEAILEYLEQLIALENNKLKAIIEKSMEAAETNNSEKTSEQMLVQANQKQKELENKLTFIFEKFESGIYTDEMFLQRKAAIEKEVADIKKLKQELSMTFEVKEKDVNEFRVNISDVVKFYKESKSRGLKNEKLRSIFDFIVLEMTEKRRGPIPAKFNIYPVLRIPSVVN
Procedure: (§1) To measure SR21 recombinase activity in human cells, 75,000 HEK293 cells were plated into each well of 96-well tissue culture plates in 100 μl of high-glucose DMEM+10% Fetal Bovine Serum. The recombinase reporter plasmid (P041) ±the SR21 Recombinase expression plasmid (P175)+deoxynucleotides (to normalize DNA amounts) were complexed with Fugene-HD transfection reagent in OptiMEM medium for 15 minutes at room temperature as shown in Table 1 and transfected into triplicate wells of the plated cells. Plates were incubated at 37° C. for 48 hours.
(§2) Firefly Luciferase (fLUC) and Renilla luciferase (rLUC) was assayed sequentially in transfected wells using the Dual Glo assay kit from Promega. Medium was removed from the transfected wells of the tissue culture plate and 100 μl of a 1:1 mixture of DMEM medium (without phenol red) and the Dual Glo luciferase+ fLUC substrate was added. The plate was incubated at room temperature for 10 minutes. The lysate was transferred to an opaque white 96-well plate. fLUC activity was measured using the Envision multilabel reader. Next, 50 μl per well of the Stop-and-Glo buffer+Renilla substrate was added and the plate was incubated with gentle shaking for 10 minutes. The Renilla luciferase signal was read on the same Envision reader.

[2] = biological target: T1, SR21 serine recombinase (Serine …); test: cell_activity; attP x attB (SEQ 9) inversion reporter P41 in HEK293, fold increase in fLUC over reporter alone, 37 C 48 h; details: tags: untagged; expressed from CMV promoter plasmid P175 or Ad5-CMV-SR21
Procedure: as §1, §2

B1: SR21 attB (Fairview) (dsDNA)
DNA 1: CGTCAACATCTCCACTGACAAAGCGGTTTCTCCAACGAAT
DNA 2: ATTCGTTGGAGAAACCGCTTTGTCAGTGGAGATGTTGACG
activity [1]: 1540 fold

B2: SR21 attP (dsDNA)
DNA 1: AATTAAGTATCATGATAAACTGACAAAGCGGTATATCAAGATACTTAATA
DNA 2: TATTAAGTATCTTGATATACCGCTTTGTCAGTTTATCATGATACTTAATT
activity [2]: 1540 fold
